Results taken from doi:10.1101/2023.01.30.525655.

How the values were obtained:
[1] = molecular target: RED-NHS-MIF-6xHis (human MIF-6xHis labelled with the RED-NHS dye) (human) (UniProt P14174); experiment: MST
[2] = molecular target: MDL1-6xHis (Arabidopsis thaliana MIF/D-DT-like protein 1, hexahistidine-tagged) (Arabidopsis thaliana); experiment: crystal structure
[3] = molecular target: MDL1-6xHis (Arabidopsis thaliana MIF/D-DT-like protein 1, hexahistidine-tagged) (Arabidopsis thaliana); experiment: SEC
[4] = molecular target: MIF-6xHis (human macrophage migration inhibitory factor, hexahistidine-tagged) (human) (UniProt P14174); experiment: SEC
Chain of MIF-6xHis (human macrophage migration inhibitory factor, hexahistidine-tagged) (human) (P14174 2-115): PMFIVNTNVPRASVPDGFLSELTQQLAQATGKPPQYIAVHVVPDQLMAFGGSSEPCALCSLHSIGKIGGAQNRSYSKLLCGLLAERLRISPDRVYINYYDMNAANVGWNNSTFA

Chain of RED-NHS-MIF-6xHis (human MIF-6xHis labelled with the RED-NHS dye) (human) (P14174 2-115): as above

## MDL1-6xHis (Arabidopsis thaliana MIF/D-DT-like protein 1, hexahistidine-tagged) (natural protein)
[1]
  Kd: < 5 µM
[2]
  stoichiometry N: 3
[3]
  stoichiometry N: 3
[4]
  fraction of the mixture in the hetero-hexamer: 0.33
